Experimental data from article PMC8968458.

Molecular target: p65 (UniProt Q04206)
Experiment: pull-down of SFB-tagged RB-N from cells
Details: reference: SFB-RB-N wild type; sites S249,T252

binding against the reference: weaker
Substance: RB N-terminal portion (RB-N) (from UniProt P06400) S249A/T252A
